Reference: the supplement of paper PMC10567573

B1: KCNK9 (parent)
chain: CFITLTTIGFGDYVALQTKGALQK

Variants of: B1
Assay: protein stability index of a GFP-peptide fusion (GPS, HEK-293T) (PSI 1-6); higher = more stable
Details: c terminus: a fixed tail appended
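Further: lentivirally expressed fusions sorted by FACS into six bins by GFP to DsRed ratio, PSI derived from sequencing read proportions per bin multiplied by bin number.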

Variant | protein stability index
CFITLTTIGFGDYVALQTKGFLQK | 3.44
CFITLTTIGFGDYVALQTKGMLQK | 1.99
CFITLTTIGFGDYVALQTKGELQK | 3.6
CFITLTTIGFGDYVALQTKGCLQK | 3.22
CFITLTTIGFGDYVALQTKGNLQK | 2.39
CFITLTTIGFGDYVALQTKGGLQK | 2.1
CFITLTTIGFGDYVALQTKGPLQK | 2.97
CFITLTTIGFGDYVALQTKGVLQK | 2.29
CFITLTTIGFGDYVALQTKGWLQK | 3.01
CFITLTTIGFGDYVALQTKGSLQK | 2.43
CFITLTTIGFGDYVALQTKGDLQK | 2.88
CFITLTTIGFGDYVALQTKGILQK | 2.44
CFITLTTIGFGDYVALQTKGLLQK | 3.54
CFITLTTIGFGDYVALQTKGKLQK | 3.05
CFITLTTIGFGDYVALQTKGRLQK | 3.3
CFITLTTIGFGDYVALQTKGQLQK | 2.21
CFITLTTIGFGDYVALQTKGTLQK | 2.56
CFITLTTIGFGDYVALQTKGHLQK | 3.21
CFITLTTIGFGDYVALQTKSALQK | 3.74
CFITLTTIGFGDYVALQTKFALQK | 3.39
CFITLTTIGFGDYVALQTKPALQK | 2.55
CFITLTTIGFGDYVALQTKNALQK | 3.17
CFITLTTIGFGDYVALQTKQALQK | 3.38
CFITLTTIGFGDYVALQTKAALQK | 3.49

Variant | protein stability index
CFITLTTIGFGDYVALQTKCALQK | 3.1
CFITLTTIGFGDYVALQTKHALQK | 2.6
CFITLTTIGFGDYVALQTKTALQK | 5.14
CFITLTTIGFGDYVALQTKYALQK | 2.54
CFITLTTIGFGDYVALQTKDALQK | 3.25
CFITLTTIGFGDYVALQTKRALQK | 3.65
CFITLTTIGFGDYVALQTKEALQK | 3.59
CFITLTTIGFGDYVALQTKIALQK | 2.58
CFITLTTIGFGDYVALQTKWALQK | 3.87
CFITLTTIGFGDYVALQTKGAYQK | 2.37
CFITLTTIGFGDYVALQTKGAEQK | 3.67
CFITLTTIGFGDYVALQTKGANQK | 1.91
CFITLTTIGFGDYVALQTKGATQK | 3.37
CFITLTTIGFGDYVALQTKGAMQK | 3.38
CFITLTTIGFGDYVALQTKGAVQK | 2.62
CFITLTTIGFGDYVALQTKGAKQK | 2.4
CFITLTTIGFGDYVALQTKGAIQK | 2.06
CFITLTTIGFGDYVALQTKGARQK | 2.12
CFITLTTIGFGDYVALQTKGASQK | 3.93
CFITLTTIGFGDYVALQTKGAWQK | 2.21
CFITLTTIGFGDYVALQTKGADQK | 4.33
CFITLTTIGFGDYVALQTKGAFQK | 2.72
CFITLTTIGFGDYVALQTKGAAQK | 3.37
CFITLTTIGFGDYVALQTKGACQK | 2.29

Variant | protein stability index
CFITLTTIGFGDYVALQTKGAQQK | 2.46
CFITLTTIGFGDYVALQTKGAGQK | 2.86
CFITLTTIGFGDYVALQTKGAPQK | 2.56
CFITLTTIGFGDYVALQTHGALQK | 1.98
CFITLTTIGFGDYVALQTVGALQK | 3.26
CFITLTTIGFGDYVALQTFGALQK | 1.95
CFITLTTIGFGDYVALQTPGALQK | 4.04
CFITLTTIGFGDYVALQTLGALQK | 2.36
CFITLTTIGFGDYVALQTAGALQK | 3.43
CFITLTTIGFGDYVALQTWGALQK | 2.13
CFITLTTIGFGDYVALQTGGALQK | 1.24
CFITLTTIGFGDYVALQTTGALQK | 4.24
CFITLTTIGFGDYVALQTNGALQK | 4.09
CFITLTTIGFGDYVALQTDGALQK | 3.22
CFITLTTIGFGDYVALQTYGALQK | 3.38
CFITLTTIGFGDYVALQTRGALQK | 3.19
CFITLTTIGFGDYVALQTEGALQK | 2.46
CFITLTTIGFGDYVALQTIGALQK | 2.23
CFITLTTIGFGDYVALQTSGALQK | 2.11
CFITLTTIGFGDYVALQTQGALQK | 2.16
CFITLTTIGFGDYVALQTKGALCK | 2.6
CFITLTTIGFGDYVALQTKGALAK | 3.76
CFITLTTIGFGDYVALNTKGALQK | 2.33
CFITLTTIGFGDYVALYTKGALQK | 3.01

Variant | protein stability index
CFITLTTIGFGDYVALPTKGALQK | 3.82
CFITLTTIGFGDYVALVTKGALQK | 3.42
CFITLTTIGFGDYVALTTKGALQK | 2.08
CFITLTTIGFGDYVALWTKGALQK | 2.58
CFITLTTIGFGDYVALRTKGALQK | 2.83
CFITLTTIGFGDYVALQLKGALQK | 3.51
CFITLTTIGFGDYVALQQKGALQK | 2.63
CFITLTTIGFGDYVALQHKGALQK | 3
CFITLTTIGFGDYVALQSKGALQK | 2.27
CFITLTTIGFGDYVALQEKGALQK | 2.28
CFITLTTIGFGDYVALQWKGALQK | 3.1
CFITLTTIGFGDYVALQDKGALQK | 1.76
CFITLTTIGFGDYVALQFKGALQK | 1.72
CFITLTTIGFGDYVALQIKGALQK | 2.12
CFITLTTIGFGDYVALQPKGALQK | 1.64
CFITLTTIGFGDYVALQMKGALQK | 2.49
CFITLTTIGFGDYVALQAKGALQK | 2.8
CFITLTTIGFGDYVALQRKGALQK | 2.64
CFITLTTIGFGDYVALQNKGALQK | 2.42
CFITLTTIGFGDYVALQKKGALQK | 1.58
CFITLTTIGFGDYVALQYKGALQK | 3.26
CFITLTTIGFGDYVALQCKGALQK | 3.43
